The record followed here is US20110002929A1 (Ablynx, published 2011).

As a reminder, the IC50 is the concentration that gives 50% inhibition. For orientation: EC50 means the concentration needed to bring the measured effect to its halfway point. A high value points to weaker potency.

The target in assay [1] is T1, mouse RANK-L (mouse, UniProt O35235 158-316, limits assumed).
T1 construct: also called murine RANK-L
T1 sequence (looked up): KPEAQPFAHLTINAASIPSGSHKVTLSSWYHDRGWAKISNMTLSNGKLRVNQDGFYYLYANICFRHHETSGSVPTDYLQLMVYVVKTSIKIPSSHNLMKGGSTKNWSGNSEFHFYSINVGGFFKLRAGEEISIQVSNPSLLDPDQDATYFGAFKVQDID
The assay is described as follows: ELISA, set-up as for human RANK-L. On the procedure:
(§1) Therefore 2 μg/ml neutravidin was coated overnight at 4° C. The plates were washed 5 times with 300 μl PBS and then blocked with […] 1% casein/PBS for 2 hours at room temperature. […] After extensive washing with PBS, varying concentrations of Nanobodies starting from 500 nM to 160 pM diluted in 1% casein/PBS were added to the wells and the plates were incubated for 1 hour at room temperature. Bound Nanobodies were detected by subsequent incubations of a primary mouse anti-myc antibody and a secondary anti mouse-HRP conjugate (DAKO, Glostrup, Denmark) and using TMB-H2O2 (Pierce, Rockford, Ill., USA) substrate cocktail. The reaction was stopped with H₂SO₄ and the OD was read at 450 nm.
On the technique in general: In an ELISA, binding on a coated surface is turned into a signal by an enzyme label.

Assay [2] has as its target T2, cynomolgus RANK-L, full length, membrane-bound, expressed on HEK293T cells (cynomolgus monkey, UniProt A0A7N9DBU4 1-317).
T2 construct: whole, on cells; also called cyno RANK-L
T2 sequence: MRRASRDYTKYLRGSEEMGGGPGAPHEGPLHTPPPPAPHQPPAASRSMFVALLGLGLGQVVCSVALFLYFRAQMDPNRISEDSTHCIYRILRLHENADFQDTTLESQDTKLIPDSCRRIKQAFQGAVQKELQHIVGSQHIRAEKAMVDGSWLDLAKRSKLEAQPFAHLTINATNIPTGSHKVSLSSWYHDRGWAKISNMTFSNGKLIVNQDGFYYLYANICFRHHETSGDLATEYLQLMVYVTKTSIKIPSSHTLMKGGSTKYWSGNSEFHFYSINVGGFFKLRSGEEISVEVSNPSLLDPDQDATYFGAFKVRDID
The assay is described as follows: FACS, HEK293T with cynomolgus RANK-L, 2000 pM Nanobody. The method, then: (§2) Human embryonic kidney cells (HEK293T) were grown in Dulbecco's modified Eagles's medium supplemented with 10% fetal bovine serum (FBS), […] L-glutamine, 0.4 mM sodium pyruvate. […] After 48 hours, transfected cells were subjected to FACS analysis. […] Then cells were washed three times with FACS buffer. Bound Nanobodies were detected by subsequent incubations of a primary mouse anti Myc antibody (30 min at 4° C. (2 μg/ml)) and a second incubation with goat anti mouse-Phycoerythrin (PE) (Jackson Laboratories) for another 30 min at 4° C. Finally, after washing, the cells were resuspended in PBS+10% FBS+TO-PRO®-3 (5 nM) (Molecular Probes®, Invitrogen, Merelbeke, Belgium) and cell surface fluorescence expressed as mean PE fluorescence, was measured using flow cytometry.
In general terms: In flow cytometry, cells or beads pass a laser one at a time.

Assay [3] concerns the target T3, human RANK-L (human, UniProt O14788 140-317, limits assumed).
T3 construct: Soluble protein, used coated, biotinylated or labelled in ELISA, AlphaScreen, FMAT and Biacore; also called hRANK-L; soluble human RANK-L
T3 sequence (looked up): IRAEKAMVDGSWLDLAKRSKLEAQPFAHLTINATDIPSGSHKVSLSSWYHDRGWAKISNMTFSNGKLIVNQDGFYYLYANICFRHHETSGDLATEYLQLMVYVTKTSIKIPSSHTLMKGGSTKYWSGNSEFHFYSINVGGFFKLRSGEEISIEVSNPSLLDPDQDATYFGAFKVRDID
Put plainly: AlphaScreen, biotin-hRANK-L / RANK-huFc beads. A general note: Bead proximity is the source of the signal in Alpha formats.

Assay [4] addresses T3, human RANK-L. The assay is described as follows: cell-based or functional assay.
For assay [5], the target named is T4, human RANK-L, full length, membrane-bound, expressed on HEK293T cells (human, UniProt O14788 1-317).
T4 construct: whole, on cells; also called hRANK-L
T4 sequence (looked up): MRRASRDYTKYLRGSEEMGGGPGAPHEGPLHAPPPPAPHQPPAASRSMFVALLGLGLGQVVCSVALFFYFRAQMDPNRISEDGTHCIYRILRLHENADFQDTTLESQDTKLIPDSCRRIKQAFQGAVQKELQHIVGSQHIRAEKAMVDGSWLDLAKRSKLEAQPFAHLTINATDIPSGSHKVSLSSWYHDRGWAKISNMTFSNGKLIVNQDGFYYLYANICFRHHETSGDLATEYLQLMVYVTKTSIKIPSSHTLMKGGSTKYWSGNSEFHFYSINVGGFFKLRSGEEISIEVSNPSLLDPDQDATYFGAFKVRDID
The assay is described as follows: FACS, HEK293T with human RANK-L, 2000 pM Nanobody. The method, then: as §2

In assay [6] the target is T3, human RANK-L. The assay is described as follows: ELISA (ED50), biotin-hRANK-L on neutravidin. On the procedure:
as §1

The target in assay [7] is T2, cynomolgus RANK-L, full length, …. The assay is described as follows: FACS, HEK293T with cynomolgus RANK-L, 400 pM Nanobody. On the procedure: as §2
Assay [8] addresses T3, human RANK-L. The assay is described as follows: AlphaScreen, biotin-hRANK-L / RANK-huFc beads. On the procedure: To this mixture, the RANK acceptor beads and the streptavidin donor beads were added and further incubated for 1 hour at room temperature. Fluorescence was measured by reading plates on the EnVision Multilabel Plate Reader (Perkin Elmer) using an excitation wavelength of 680 nm and an emission wavelength of 520 nm.
This is another data set of the same source.

Assay [9] addresses T5, TNFα (UniProt P01375 77-233).
T5 construct: also called TNF-alpha
Put plainly: competition ELISA on RANK-L-coated plates, 1 nM Nanobody preincubated with the ligand.

The target of assay [10] is T6, TRAIL (UniProt P50591 114-281, limits assumed).
T6 construct: also called tumor necrosis factor-related apoptosis inducing ligand
T6 sequence (P50591 114-281 limits assumed): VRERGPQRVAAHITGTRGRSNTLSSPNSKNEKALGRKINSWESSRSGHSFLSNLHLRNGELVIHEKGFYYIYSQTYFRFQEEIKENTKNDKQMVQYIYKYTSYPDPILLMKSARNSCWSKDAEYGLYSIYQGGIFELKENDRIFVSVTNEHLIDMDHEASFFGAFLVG
The assay is described as above.

For assay [11], the target named is T7, CD40 ligand (UniProt P29965 113-261, limits assumed).
T7 sequence (looked up): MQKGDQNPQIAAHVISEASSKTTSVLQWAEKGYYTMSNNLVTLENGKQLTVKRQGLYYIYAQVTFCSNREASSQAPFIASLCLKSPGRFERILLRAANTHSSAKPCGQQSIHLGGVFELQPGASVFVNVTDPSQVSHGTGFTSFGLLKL
The assay is described as above.

For assay [12], the target named is T4, human RANK-L, full length, …. The assay is described as follows: FACS, HEK293T with human RANK-L, 400 pM Nanobody. The method, then:
as §2

Assay [13] concerns the target T3, human RANK-L. The assay is described as follows: FMAT, ALEXA647-hRANK-L / RANK on HEK293T cells. The method, then: HEK293T cells were transiently transfected with the plasmid expressing full length RANK using Fugene6 as described in example 3. After 24 hours aliquots of 60 μl (7.5×10³ cells) were plated into FMAT system 384-well plates (PE Biosystems, CA, US) and allowed to adhere for 24 h. After overnight adherence, culture supernatant was removed by gently tapping the plate. […] The plates were scanned after 10 hours of incubation. Cell surface fluorescence was measured by 8200 Cellular Detection System (Applied Biosystems, Foster City, Calif., US) which is a fluorescence macro-confocal, biological binding event analyzer that enables mix-and-read assays with live cells.

For assay [14], the target named is T4, human RANK-L, full length, …. Put plainly: FACS, HEK293T with human RANK-L, 3.2 pM Nanobody. The method, then: as §2
Assay [15] has the same target. Put plainly: FACS, HEK293T with human RANK-L, 80 pM Nanobody. On the procedure: as §2
The target is the same in assay [16]. The assay is described as follows: FACS, HEK293T with human RANK-L, 16 pM Nanobody. The method, then:
as §2

Assay [17] addresses T3, human RANK-L. Put plainly: AlphaScreen, biotin-hRANK-L / RANK-huFc beads. This is another data set of the same source.
In assay [18] the target is T5, TNFα. The assay is described as follows: competition ELISA on human RANK-L-coated plates, 100 pM Nanobody preincubated with the ligand.
Assay [19] has as its target T1, mouse RANK-L. The description is as above.
Assay [20] has as its target T6, TRAIL. Described as above.
Assay [21] concerns the target T3, human RANK-L. The assay is described as follows: FMAT, ALEXA647-hRANK-L / RANK on HEK293T cells. The source holds these as a separate data set.
Assay [22] concerns the target T1, mouse RANK-L. The assay is described as follows: ELISA (ED50) on murine RANK-L, set-up as for human RANK-L. On the procedure:
as §1

T5 sequence (P01375 77-233 limits assumed): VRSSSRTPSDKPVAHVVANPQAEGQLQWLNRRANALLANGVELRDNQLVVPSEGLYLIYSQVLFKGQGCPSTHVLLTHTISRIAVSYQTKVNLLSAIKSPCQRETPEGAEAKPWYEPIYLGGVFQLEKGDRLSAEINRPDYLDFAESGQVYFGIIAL

B1: RANKL15 (VHH, not shown: small tags and cut ends)
VHH: EVQLVESGGGLVQAGGSLRLSCAAAGGTFRNYVMGWFRQAPGKEREFVTAISTGGSWTGYVDSVKDRFTISRDNTKNTVYLQMASLKPEDTAVYYCAATTPATTYLPRSERQYDYWGQGTQVTVSS
As for B1, the binding result is given as “no binding (tested: 500 nM to 160 pM)” in [1], “no binding (tested: approximately 100 nM)” in assay [9], “no binding (tested: approximately 100 nM)” in assay [10] and “no binding (tested: approximately 100 nM)” in assay [11]. For the same molecule, the PE mean fluorescence in assay [2] stood at 11000; in assay [5] it was 7720; in assay [7], 3410; in [12] it was 2640; in assay [14] it was 124; in [15], 715. Further, in [16], the PE mean fluorescence stood at 250. In addition, the IC50 in assay [3] came to 0.572 nM; in assay [8] it was 0.283 nM; in assay [13] it was 0.534 nM. The “RANK-L induced NF-kappaB activation (luciferase reporter, HEK293T cells), IC50” value in [4] came out at 10 nM. This molecule also yielded an EC50 in assay [6] of 0.266 nM.

B2: RANKL003p (VHH)
chain: EVQLVESGGGLVQPGGSLRLSCAASGRTFSRSAMGWFRQAPGKGREFVGFITGSGGTTYYADSVKGRFTISRDNAQNPVYLQMNSLRPEDTAVYYCAVYRRTYISSTYSESSEYDYWGQGTLVTVSSGGGGSGGGGSGGGGSGGGGSGGGGSGGGGSEVQLVESGGGLVQPGGSLRLSCAASGRTFSRSAMGWFRQAPGKGREFVGFITGSGGTTYYADSVKGRFTISRDNAQNPVYLQMNSLRPEDTAVYYCAVYRRTYISSTYSESSEYDYWGQGTLVTVSSGGGC
modifications: PEG (3-Maleimidoproprionamide, 1,3-bis(Methoxy poly (ethylene glycol) modified 2-glycerol), Average MW 40,000) coupled after DTT reduction; the entry ends in GGGC
notes: Bivalent pegylated humanized Nanobody; also called RANKL3p; RANKL18hum6-30GS-RANKL18hum6-PEG
In the case of B2, the concentration for half-maximal inhibition (IC50) in assay [17] turned out to be 0.025 nM; in [21] it was 0.038 nM. The binding result in assay [18], in [19] and in assay [20] was “no binding (tested: 10 nM)” throughout.

B3: RANKL3 (VHH, not shown: small tags and cut ends)
VHH: EVQLVESGGKLVQAGGSLRLSCAVSGRTSSIYNMAWFRQGPGKGRESVGRIYWSDDNTYYADSVKGRFTISRDNATNTVYLQMNSLKPEDTAVYYCAGKTTKWSLEYDYWGQGTQVTVSS
Regarding B3, the IC50 was determined as 0.474 nM in [3] and 0.497 nM in [8]. In assay [4], the “RANK-L induced NF-kappaB activation (luciferase reporter, HEK293T cells), IC50” value was determined as 8.32 nM. Moreover, the figures for the EC50 in assay [6] and in assay [22] were 0.568 nM and about 0.6 nM, respectively.

B4: RANKL001p (VHH)
chain: EVQLVESGGGLVQPGGSLRLSCAASGFTFSSYPMGWFRQAPGKGREFVSSITGSGGSTYYADSVKGRFTISRDNAKNTLYLQMNSLRPEDTAVYYCAAYIRPDTYLSRDYRKYDYWGQGTLVTVSSGGGGSGGGSEVQLVESGGGLVQPGGSLRLSCAASGFTFSSYPMGWFRQAPGKGREFVSSITGSGGSTYYADSVKGRFTISRDNAKNTLYLQMNSLRPEDTAVYYCAAYIRPDTYLSRDYRKYDYWGQGTLVTVSSGGGC
modifications: PEG (3-Maleimidoproprionamide, 1,3-bis(Methoxy poly (ethylene glycol) modified 2-glycerol), Average MW 40,000) coupled after DTT reduction; the entry ends in GGGC
notes: Bivalent pegylated humanized Nanobody; also called RANKL13hum5-9GS-RANKL13hum5-PEG
As for B4, the IC50 was 0.049 nM in assay [17] and 0.041 nM in assay [21]. For the same molecule, the binding result in assay [18], in assay [19] and in [20] was “no binding (tested: 10 nM)” each time.
